Test results taken from patent publication US20050182003A1, “Drugs to be used in gene therapy for recessively transmitted genetic disease” (priority 2002, published 2005).

Test system: mouse
Test: suppression of immune response by oral tolerance
Format: in vivo
Conditions: administered orally to a mouse
Description: As for a method for suppressing antigen-specific immune response, various methods have been already reported. […] Therefore, they tried to suppress the anti-Dsg3 antibody generation in Dsg3^+/+ graft strain by inhibiting the binding of CD40 and CD40L, which are playing an important role to the establishment of immune response. CD40L is a type II cell membrane-penetrating protein, expressed transiently in activated T cells having received antigen stimulation and CD40, its receptor, is expressed in B cells, dendritic cells, monocyte/macrophage, endothelial cells and the like. The CD40-CD40L binding not only plays an important role in cellular immunity by promoting cytokine production and the like, but it is clarified to be quite important for proliferation of B cells, antibody production and the like. Thus, attempts have been made to suppress immune response in autoimmune diseases, organ transplantation and the like by using anti-CD40L monoclonal antibody inhibiting this binding. As mentioned above, in Dsg3^+/+ graft strain, anti-Dsg3 IgG antibody generation, which is detected in serum by ELISA method, is observed approximately two weeks after skin graft, in all mice that underwent skin graft.

B1: Dsg3 protein: Dsg3 protein prepared with the use of E. Coli expression vector, administered orally (protein, UniProt P32926 50-999, looked up)
Desmoglein-3: EWVKFAKPCREGEDNSKRNPIAKITSDYQATQKITYRISGVGIDQPPFGIFVVDKNTGDINITAIVDREETPSFLITCRALNAQGLDVEKPLILTVKILDINDNPPVFSQQIFMGEIEENSASNSLVMILNATDADEPNHLNSKIAFKIVSQEPAGTPMFLLSRNTGEVRTLTNSLDREQASSYRLVVSGADKDGEGLSTQCECNIKVKDVNDNFPMFRDSQYSARIEENILSSELLRFQVTDLDEEYTDNWLAVYFFTSGNEGNWFEIQTDPRTNEGILKVVKALDYEQLQSVKLSIAVKNKAEFHQSVISRYRVQSTPVTIQVINVREGIAFRPASKTFTVQKGISSKKLVDYILGTYQAIDEDTNKAASNVKYVMGRNDGGYLMIDSKTAEIKFVKNMNRDSTFIVNKTITAEVLAIDEYTGKTSTGTVYVRVPDFNDNCPTAVLEKDAVCSSSPSVVVSARTLNNRYTGPYTFALEDQPVKLPAVWSITTLNATSALLRAQEQIPPGVYHISLVLTDSQNNRCEMPRSLTLEVCQCDNRGICGTSYPTTSPGTRYGRPHSGRLGPAAIGLLLLGLLLLLLAPLLLLTCDCGAGSTGGVTGGFIPVPDGSEGTIHQWGIEGAHPEDKEITNICVPPVTANGADFMESSEVCTNTYARGTAVEGTSGMEMTTKLGAATESGGAAGFATGTVSGAASGFGAATGVGICSSGQSGTMRTRHSTGGTNKDYADGAISMNFLDSYFSQKAFACAEEDDGQEANDCLLIYDNEGADATGSPVGSVGCCSFIADDLDDSFLDSLGPKFKKLAEISLGVDGEGKEVQPPSKDSGYGIESCGHPIEVQQTGFVKCQTLSGSQGASALSTSGSVQPAVSIPDPLQHGNYLVTETYSASGSLVQPSTAGFDPLLTQNVIVTERVICPISSVPGNLAGPTQLRGSHTMLCTEDPCSRLI
Question: Which “suppression of immune response by oral tolerance” value does the source give for B1 here?
Answer: Its value is “failed to obtain successful results”.
